The source of these data is US20040175375A1 (SEOUL NATIONAL UNIVERSITY INDUSTRY FOUNDATION, published 2004).

Data set [1] concerns the target T1, B42-WRS (tryptophanyl-tRNA synthetase) (UniProt P23381 1-471).
T1 construct: Yeast two-hybrid prey; also called tryptophanyl-WRS; pB42-WRS; not shown: B42 protein from pB42 vector (Invitrogen)
T1 sequence (looked up): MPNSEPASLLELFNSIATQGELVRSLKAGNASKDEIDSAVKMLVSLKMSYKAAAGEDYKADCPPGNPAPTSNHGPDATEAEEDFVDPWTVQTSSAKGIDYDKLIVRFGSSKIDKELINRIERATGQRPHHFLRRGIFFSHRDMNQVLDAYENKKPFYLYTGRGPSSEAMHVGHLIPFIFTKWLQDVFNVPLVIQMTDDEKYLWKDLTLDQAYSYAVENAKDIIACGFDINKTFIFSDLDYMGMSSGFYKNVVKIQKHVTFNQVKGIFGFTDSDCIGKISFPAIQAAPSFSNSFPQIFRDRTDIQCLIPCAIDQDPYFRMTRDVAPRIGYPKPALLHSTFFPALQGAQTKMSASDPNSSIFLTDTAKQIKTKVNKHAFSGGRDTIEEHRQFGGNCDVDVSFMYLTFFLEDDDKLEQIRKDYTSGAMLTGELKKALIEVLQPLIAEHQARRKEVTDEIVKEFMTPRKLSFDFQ
Put plainly: yeast two-hybrid (LexA system), blue colony on X-gal. The text has this: (§1) Using the recombinant plasmids constructed in the above, Saccaromyces cerevisiae EGY48 (Clontech laboratories Inc. Estojak et al. (1995)) having a lacZ plasmid (p8op-LacZ) as a probe gene was transformed according to the known methods (Golemis, E. A., et al., In Current Protocols in Molecular Biology, 1994).

Data set [2] has as its target T2, B42-QRS (glutaminyl-tRNA synthetase) (UniProt P47897 1-775).
T2 construct: Yeast two-hybrid prey; also called pB42-QRS; not shown: B42 protein from pB42 vector (Invitrogen)
T2 sequence (looked up): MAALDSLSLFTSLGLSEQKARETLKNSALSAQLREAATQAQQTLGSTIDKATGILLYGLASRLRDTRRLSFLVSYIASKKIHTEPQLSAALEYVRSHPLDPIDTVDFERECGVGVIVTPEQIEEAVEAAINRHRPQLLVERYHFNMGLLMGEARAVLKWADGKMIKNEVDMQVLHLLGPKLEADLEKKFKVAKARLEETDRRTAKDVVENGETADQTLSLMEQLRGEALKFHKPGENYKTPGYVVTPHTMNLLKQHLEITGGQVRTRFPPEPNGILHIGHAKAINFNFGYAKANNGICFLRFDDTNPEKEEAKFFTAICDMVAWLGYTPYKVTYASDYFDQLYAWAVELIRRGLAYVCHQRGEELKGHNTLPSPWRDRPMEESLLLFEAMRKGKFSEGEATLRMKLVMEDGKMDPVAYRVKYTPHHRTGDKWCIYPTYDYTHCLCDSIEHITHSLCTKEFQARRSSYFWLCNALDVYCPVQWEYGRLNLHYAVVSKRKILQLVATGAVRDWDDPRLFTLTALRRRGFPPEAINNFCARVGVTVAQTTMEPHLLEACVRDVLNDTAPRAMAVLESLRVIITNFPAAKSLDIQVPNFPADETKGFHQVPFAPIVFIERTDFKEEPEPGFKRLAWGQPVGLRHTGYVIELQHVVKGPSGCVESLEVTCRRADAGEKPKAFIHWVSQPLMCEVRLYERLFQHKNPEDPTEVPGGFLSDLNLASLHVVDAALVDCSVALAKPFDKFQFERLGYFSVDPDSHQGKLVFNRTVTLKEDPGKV
The description is as above.
Source text: as §1

Data set [3] addresses T3, B42-YRS (tyrosyl-tRNA synthetase) (UniProt P54577 1-528).
T3 construct: Yeast two-hybrid prey; also called tyrosyl-YRS; pB42-YRS; not shown: B42 protein from pB42 vector (Invitrogen)
T3 sequence (looked up): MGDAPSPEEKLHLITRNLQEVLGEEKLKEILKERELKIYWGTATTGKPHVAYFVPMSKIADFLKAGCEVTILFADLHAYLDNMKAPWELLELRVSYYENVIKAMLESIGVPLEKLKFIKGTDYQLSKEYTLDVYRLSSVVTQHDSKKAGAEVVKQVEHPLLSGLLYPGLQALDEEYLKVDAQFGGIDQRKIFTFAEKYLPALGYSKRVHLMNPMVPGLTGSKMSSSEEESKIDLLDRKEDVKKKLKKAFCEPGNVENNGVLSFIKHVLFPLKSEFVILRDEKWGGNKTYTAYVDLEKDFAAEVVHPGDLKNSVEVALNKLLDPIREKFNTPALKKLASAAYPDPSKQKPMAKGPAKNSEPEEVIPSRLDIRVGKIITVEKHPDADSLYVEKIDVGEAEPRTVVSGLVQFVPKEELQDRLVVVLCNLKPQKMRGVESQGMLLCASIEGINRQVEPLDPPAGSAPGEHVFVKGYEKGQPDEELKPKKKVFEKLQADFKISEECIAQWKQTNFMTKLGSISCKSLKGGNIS
The description is as above.
Source text: as §1

In the next data set the target is T4, B42-(p38/JTV-1) (human, UniProt Q13155 1-312).
T4 construct: Yeast two-hybrid prey; also called pB42-(p38/JTV-1); not shown: B42 protein from pB42 vector (Invitrogen)
T4 sequence: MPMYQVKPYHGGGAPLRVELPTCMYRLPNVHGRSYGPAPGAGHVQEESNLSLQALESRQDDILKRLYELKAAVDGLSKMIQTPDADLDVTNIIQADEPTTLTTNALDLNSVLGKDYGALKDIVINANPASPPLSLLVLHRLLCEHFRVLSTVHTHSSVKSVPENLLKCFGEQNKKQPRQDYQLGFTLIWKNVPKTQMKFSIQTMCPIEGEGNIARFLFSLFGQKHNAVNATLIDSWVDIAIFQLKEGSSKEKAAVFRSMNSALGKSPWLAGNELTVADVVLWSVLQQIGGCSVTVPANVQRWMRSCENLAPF
Described as above.
Source text: as §1

Data set [4] concerns the target T5, PDK-1 (phosphoinositide-dependent kinase) (UniProt O15530 1-556, limits assumed).
T5 construct: Endogenous protein of the cell lysate
T5 sequence (looked up): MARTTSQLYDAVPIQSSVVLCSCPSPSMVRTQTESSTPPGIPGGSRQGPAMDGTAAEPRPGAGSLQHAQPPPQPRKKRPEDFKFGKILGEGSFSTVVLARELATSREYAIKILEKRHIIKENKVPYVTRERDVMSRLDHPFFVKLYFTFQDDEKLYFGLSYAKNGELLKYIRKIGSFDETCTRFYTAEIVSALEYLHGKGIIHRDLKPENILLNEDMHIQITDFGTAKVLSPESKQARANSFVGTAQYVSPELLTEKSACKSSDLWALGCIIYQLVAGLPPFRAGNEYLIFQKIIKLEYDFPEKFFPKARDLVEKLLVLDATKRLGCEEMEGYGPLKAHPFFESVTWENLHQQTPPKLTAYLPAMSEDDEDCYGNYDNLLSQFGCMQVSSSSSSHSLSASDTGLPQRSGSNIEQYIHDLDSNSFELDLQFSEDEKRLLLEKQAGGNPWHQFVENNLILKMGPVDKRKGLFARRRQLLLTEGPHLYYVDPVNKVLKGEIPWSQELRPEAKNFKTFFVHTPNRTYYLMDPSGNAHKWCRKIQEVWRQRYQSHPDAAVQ
The data set is described as follows: anti PDK-1 immunoprecipitation from HCT116 cells treated with FasL or TNF, western blot with p38/JTV-1 antibody. (In general: Immunoblotting shows a protein as a band on a membrane.)

The next data set addresses T6, HA-FBP (human, UniProt Q96AE4 1-644).
T6 construct: also called HA-tagged FBP; FBP expression plasmid product; not shown: HA tag from HA-tagged pcDNA3 (Invitrogen)
T6 sequence (looked up): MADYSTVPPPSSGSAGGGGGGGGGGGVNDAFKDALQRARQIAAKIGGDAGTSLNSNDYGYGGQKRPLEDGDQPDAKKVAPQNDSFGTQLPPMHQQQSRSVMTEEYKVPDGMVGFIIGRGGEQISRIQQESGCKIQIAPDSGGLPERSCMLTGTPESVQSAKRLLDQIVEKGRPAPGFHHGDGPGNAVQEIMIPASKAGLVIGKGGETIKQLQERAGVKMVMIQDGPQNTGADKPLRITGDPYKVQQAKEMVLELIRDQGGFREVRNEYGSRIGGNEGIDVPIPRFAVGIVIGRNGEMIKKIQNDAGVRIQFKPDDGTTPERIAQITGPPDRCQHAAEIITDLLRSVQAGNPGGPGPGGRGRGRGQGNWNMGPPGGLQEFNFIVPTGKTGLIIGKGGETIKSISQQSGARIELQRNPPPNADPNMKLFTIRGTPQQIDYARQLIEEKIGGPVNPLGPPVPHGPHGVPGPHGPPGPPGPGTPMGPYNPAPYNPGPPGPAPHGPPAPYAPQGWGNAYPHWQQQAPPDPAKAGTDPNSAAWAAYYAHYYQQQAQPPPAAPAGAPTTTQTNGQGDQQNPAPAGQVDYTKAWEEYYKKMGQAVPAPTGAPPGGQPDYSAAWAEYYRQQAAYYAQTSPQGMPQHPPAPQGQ
The data set is described as follows: co-immunoprecipitation with anti-myc from 293 cells, western blot. The method, then: The transfected cells were lysed with the RIPA buffer for 16 hours after the transfection. […] After a protein A-agarose bead had been added to the above reactant, the mixture was incubated further for 1 hour at 4° C. The bead was washed with lysis buffer four times. The precipitated proteins were analyzed by SDS-PAGE and then transferred onto nitrocellulose membranes.

For data set [5], the target named is T7, myc-(p38/JTV-1), amino acids 1-312 (full length).
T7 chain: T4 sequence

B1: LexA-(p38/JTV-1) (other)
chain: T4 sequence
notes: Yeast two-hybrid bait expressed in S. cerevisiae EGY48; also called fusion protein of p38/JTV-1 and LexA; pLexA-(p38/JTV-1); not shown: LexA protein encoded by pLex202 vector (Invitrogen)
In the case of B1, the binding result is listed as “no binding” in data set [1], “no binding” in data set [2], “no binding” in data set [3] and “binds” with B42-(p38/JTV-1).

B2: myc-(p38/JTV-1), amino acids 1-312 (full length) (other)
chain: T4 sequence
notes: also called myc-tagged p38/JTV-1; p38/JTV-1 expression plasmid product; not shown: myc tag from myc-tagged pcDNA3 (Invitrogen)
As to B2, the binding result in data set [4] is recorded as “binds”.

B3: myc-tagged p38/JTV-1 deletion fragment, amino acids 162-312 (other)
chain: PENLLKCFGEQNKKQPRQDYQLGFTLIWKNVPKTQMKFSIQTMCPIEGEGNIARFLFSLFGQKHNAVNATLIDSWVDIAIFQLKEGSSKEKAAVFRSMNSALGKSPWLAGNELTVADVVLWSVLQQIGGCSVTVPANVQRWMRSCENLAPF
notes: not shown: myc tag from myc-tagged pcDNA3 (Invitrogen)
Turning to B3, in the data set with HA-FBP, the binding result is recorded as “no binding”.

B4: PDK-1 (phosphoinositide-dependent kinase) (protein)
chain: T5 sequence (looked up)
In the case of B4, in data set [5], the “expression level of the phosphorylated AKT (p-308 and p-473)” value is “when the expression level of p38/JTV-1 was increased, the expression level of the phosphorylated AKT (p-308 and p-473) was decreased”.
